Tested on: CD1 male mice
Assay: In vivo bioluminescence imaging of mice injected with AAV9 constructs, induction by phenobarbital
Method: • Seed HEK 293-AAV cells in 15 cm plates. To be 70-80% confluent on the day of transfection • Final volume on each plate: 15 ml Day 2: Prepare Transfection Mix: • DNA mix/plate: pDG9 (Packaging plasmid for AAV9): 10.5 μg/pHGTI (Ad. Helper plasmid): 31.5 μg/Vector plasmid: 10.5 μg/Prepare in serum free DMEM/Optimem • Transfer mix/plate: PEI: 125 μl/Prepare in serum free DMEM/Optimem • Add DNA mix into transfection mix. Mix and leave at room temperature for 15-20 mins. • Add 3 ml of transfection mix to each plate drop-wise and gently distribute. Incubate for 24 h. Day 3: • Replace media with 15 ml DMEM supplemented with P/S and 2% FCS. Leave for 48 h. Day 5: • Collect supernatant and pool in 50 ml tubes, 25 ml each tube. Store at −20° C. • Collect cells: Add 5 ml of PBS to each plate→scrape and collect in 50 ml tubes. • To wash plates, add another 1 ml of PBS and collect. • Spin at 1500 rpm for 5 mins. • Remove supernatant and resuspend pelleted cells in 1 ml/plate TD lysis buffer→pool • Store at −80′C. Endonuclease Treatment Cells: • Freeze and thaw pellets 5 times→˜20 mins at 37° C. then ˜20 mins in dry ice (or −80° C.). • Add 25 μl/ml cells of 20% Deoxycholate (or 50 μl/ml of 10% Deoxycholate). • Add 8 μl/ml cells of benzonase. • Incubate at 37° C. for 30 mins. • Spin at 4 Krpm for 30 mins. • Filter supernatant using […] filters. • Store at 4° C. for up to 24 h. Supernatant: • Add 2.5 μl/25 ml supernatant of benzonase. • Add 50 μl/25 ml supernatant of MgSO4. • Incubate at 37° C. for 30 mins. • Spin at 4 Krpm for 30 mins. • Filter supernatant using […] filters. • Store at 4′C for up to 24 h. Hplc Purification • Place both lines in 20% ETOH→template→system wash • Put line A in PBS and line B in Glycine→template→system wash • Place the column in the machine→manual run→flowrate: 5 ml/min→Run for 25 ml or until the UV line is flat. • Prepare FACS tubes (10 for cells and more for supernatant): add 30 μl/tube Tris→put in the machine to collect vectors. • Place the waste lines in a separate tube to be able to run them again through the column. • Run samples (flowrate low, depending on how fast the system and how concentrated the sample is; for cells it is slower, for supernatant it is higher). • After running the waste through the column, wash with PBS→flowrate: 5 ml/min until the UV line is flat. • Set→fraction size: 1 ml; Flowrate: 1 ml/min; concentration % B: 100%→run. • Start collecting: Look for the peak. The peak indicates vector purification. Mark the tubes containing these vectors. • Save programme before exiting. • Wash with PBS→75 ml, 5 ml/min • Wash with Na3PO4 (to store the column in)→75 ml, 5 ml/min • Remove column and store at 4° C. • Wash the machine with PBS→template→system wash • Wash the machine with 20% ETOH→template→system wash • Put both lines in 20% ETOH and shut down • Add 2 L of PBS into a big bucket and put the Dialysis cassette (Side-A-Lyzer; Thermo scientific) to prime. • Collect the vectors from the marked FACS tubes using a syringe and needle and add into the dialysis cassette→remove excess air from the membrane, carefully place the rubber on top of the cassette and let it float in the PBS-containing bucket→leave over night at room temperature on a slow rotating rotor. Next Day: • Prime membrane by adding 5 ml PBS onto a centrifugal filter (Amico Ultra 15; MERCK)→spin for 5 mins at 4 Krpm • Remove excess PBS from inside the membrane. • Take vectors out from the cassette and load onto the membrane→spin for 5 mins at 4 Krpm • Wash the membrane with the vectors inside few times, then collect into 2 ml centrifuge tube filter 0.22 μM (Spin-X; COSTAR) • Spin for 3 mins at 13 Krpm. • Remove filter and aliquot: 1×100 μl (for injection), the rest in 10-2 μl aliquots. • Store in −80° C. • Virus quantification was performed using qRT-PCR with primers and probes for the luciferase gene. Mice Experiment […]

[1] = AAV9, phenobarbital intraperitoneally

B1: PB1-MinTK: promoter: single mouse PBREM element and MinTK minimal promoter, SEQ ID NO: 7 (nucleic acid)
DNA: TCTGTACTTTCCTGACCTTGGCACAGTGCCACCATCAACTTGCCTGACACCGATCCGGCCCCGCCCAGCGTCTTGTCATTGGCGAATTCGAACACGCAGATGCAGTCGGGGCGGCGCGGTCCGAGGTCCACTTCGCATATTAAGGTGACGCGTGTGGCCTCGAACACCGAGCGACCCTGCAGCGACCCGCTTAACAGCGTCAACAGCGTGCCGCAGATCTCGAGGAGCTTGGCGAGATTTTCAGGAGCTAAGGAAGCTAAAC
modifications: PB1-MinTK
luciferase expression before induction (0 hrs): no expression of the luciferase gene | time at which induction is complete [1]: 24 h | time of maximal activity after induction [1]: 9 h | tissue distribution of luciferase expression (AAV9 via tail vein): confined to the liver

Reference: patent US12472269B2, “Liver-specific inducible promoters and methods of use thereof” (ASKBIO INC., priority 2019, dated 2025)
